Experimental data published in the DeepSol protein solubility set.

Test: soluble on expression in E. coli; label from the status in PepcDB or PDB records

Row | Sequence | soluble on expression in E. coli
1 | GPGSMDKTKDSLIAVYDLGGGTFDISVLEIAGGVFEVKATNGDTHLGGEDFDLALSDYILEEFRKTSGIDLSKERMALQRVREAAEKAKCELSSAMETEVNLPFITANADGAQHIQMHISRSKFEGITQRLIERSIAPCKQCMKDAGVELKEINDVVLVGGMTRMPKVVEEVKKFFQKDPFRGVNPDEAVALGAATLGGVLRGKASDLILVDVTPLSLGTSVVGDVFTRMIPKNTTIPCMRSHIFTTVDDGQTAIKFKVFQGEREIASENQIRGEFDLSGIPPAPRGVPQIEVTFDIDANGICHVTAKDKATGKTQNITITANGGLSKEQIEQMIRDSEQHAEADRVKRELVEVRNNAETQLTTAERQLGEWKYVSDAEKENVKTLVAELRKAMENPNVAKDDLAAATDKLQKAVMECGRTEYQQAAAANSGQC | not soluble
2 | MKNDSFLDKVIGSLLSQNFQVDSNAYTYGLVKGKNDSFSGKVIDGIDVAKSILAIAQIFGSPIDSDCADFKTIFNGEGFKKDLKALYSMTDAVLYKFILGQPLIVGVVKADSLTHNEIYDITDKFDKAILGFRKYTARMKWTKCR | not soluble
3 | MKVTLPEFERAGVMVVGDVMLDRYWYGPTSRISPEAPVPVVKVNTIEERPGGAANVAMNIASLGANARLVGLTGIDDAARALSKSLADVNVKCDFVSVPTHPTITKLRVLSRNQQLIRLDFEEGFEGVDPQPLHERINQALSSIGALVLSDYAKGALASVQQMIQLARKAGVPVLIDPKGTDFERYRGATLLTPNLSEFEAVVGKCKTEEEIVERGMKLIADYELSALLVTRSEQGMSLLQPGKAPLHMPTQAQEVYDVTGAGDTVIGVLAATLAAGNSLEEACFFANAAAGVVVGKLGTSTVSPIELENAVRGRADTGFGVMTEEELKLAVAAARKRGEKVVMTNGVFDILHAGHVSYLANARKLGDRLIVAVNSDASTKRLKGDSRPVNPLEQRMIVLGALEAVDWVVSFEEDTPQRLIAGILPDLLVKGGDYKPEEIAGSKEVWANGGEVLVLNFEDGCSTTNIIKKIQQDKKG | soluble
4 | GTDDEEKDNNGQGSVSVETNYLPIADPYVMFYNNKYYAYGTGGTTAGEGFACFSSDDLKNWKREGQALSATDSYGTWGFWAPEVYYVESKKKFYLFYSAEEHICVATSTTPEGPFRQEVKQPIWSEKSIDTSLFIDDDGTPYLYFVRFTDGNVIWVAQMTDDLMSIKTETLNQCIKAEVSWELLQGKVAEGPSLLKKNGVYYLIYSANHYENKGYGVGYATSDTPMGPWVKYSKNPLLQGDAATGLVGTGHGAPFQCKDGSWKYIFHAHWSAAEIQPRTSYIKDFAISDQGVVTISGTVIKPRVLK | soluble
5 | IDAPSFRDKRQADKLFEKDTMDWKVSINDKSIDYSQYKMPGKKGAFPYSNLDEQLAEYNELNGVYFSNGKRVELSELQATGTAKETHRVNSPLTKAKIAYLEMTDEERQLFMKWVSQQ | not soluble
6 | MAHHHHHHMGTLEAQTQGPGSMDNKKPKIITIASIKGGVGKSTSAIILATLLSKNNKVLLIDMDTQASITSYFYEKIEKLGINFTKFNIYEILKENVDIDSTIINVDNNLDLIPSYLTLHNFSEDKIEHKDFLLKTSLGTLYYKYDYIVIDTNPSLDVTLKNALLCSDYVIIPMTAEKWAVESLDLFNFFVRKLNLFLPIFLIITRFKKNRTHKTLFEILKTKDRFLGTISEREDLNRRIAENNNFDLNKDYIKEYENILEIFLKKI | soluble
7 | MKKLYGVIGNPIGHSMSPDIHNASLKDLGLDGHYHAFKVEENDLEDAVKGIRALGVQGINVTVPHKVSIMDYLDHIDESAKVLGAVNTVRREGDKLVGYNTDGEGFVKSLMKVLDKPISELSFLMIGAGGAARAIFTTFVRNTPKKFDICNRTLEKAKRLTEATPSFHNKEVLSIKEAEERLEQYDVIIHTTSVGMYPNVDDVPLSLQRAASSAVVCDIVYNPIQTALLKEASQKGLKTLDGVGMFVEQAALSFQLWTGQEPNIEKMRSIVIGKLGGTECLEHHHHHH | soluble
8 | MGSDKIHHHHHHAQRIEELPAVPLQIGYEKTLHLIFPTEVKYYSIGGDYVIGEKVGNCPEIIRLKAAEENFPGETTLSVVTADTKFYSYAISYNAHPVESYVRVDGQAPAPHTLPVGKDRQMFLIFPAGITYVDYGSTNVEVEKAEGVDNILAVKATGEFTEDTNISAVVEGGKFYTFNLHYAPFPERFSFVIDKEKTQRVAILDERERSSEQKERIRQAISKRIPLDLGLKDKNAGMEFEVGNIFIDGDILLLRMTLTNRTQIGYTTDFMRFYIQDAKIHKKTAVQQIEQNILFAFDYPEEIPAHESRTFTVAMNKFTIPDKKRLIIEIQERNGGRHFLYKLKNKSLLGAEEVFRSLQEQKTEDEADRILRRISR | not soluble
9 | MAHHHHHHMSHTFTDPLVDLASVSFQYPHGGGGSAGGIRDVSVRVNGGDRVLVVGHNGSGKSTLLSVIAGRRKASSGRATVLGSDAFDDTRLQQHVTLIGRPWPTEAFFATTVDQVTSQAPLPERKRSVADALHLDLGRAVSNMSSGERRRVQILHGLLQKSFVYLLDECSTDIDIAERMTVLDLVRSECVVGDSCCLYATHIFDGVSDWATHLLLMQGGMVVDFKRVSDLNAPLEVFVCHFLTRRHRGLFDHTSKRTPVKDAYNDDWKGGGTVTALPLEKEAVIVCDRLQYRNIFRNLSFTVYRGDRVLLCGCNGAGKSTLLKMMGGKQFFNNCNGSLRILGKSCYDDMTLNGLVAFGGEWWDTAPPGEMHVHEMLQLQTPRAEWLCKVLGVDLSWDVRHISTGEQKHVQLLLHLLEDKPVILLDEATSDLDLDQRQELLSFLYSESVNRGVTVVYATHIFGGLENWPTAVMMLDRTTQGLHAMWCGSDVKWAEVTRELIALK | not soluble
10 | MIYDFTTKISRKNLGSLKWDLMYSQNPEVGNEVVPLSVADMEFKNPPELIEGLKKYLDETVLGYTGPTEEYKKTVKKWMKDRHQWDIQTDWIINTAGVVPAVFNAVREFTKPGDGVIIITPVYYPFFMAIKNQERKIIECELLEKDGYYTIDFQKLEKLSKDKNNKALLFCSPHNPVGRVWKKDELQKIKDIVLKSDLMLWSDEIHFDLIMPGYEHTVFQSIDEQLADKTITFTAPSKTFNIAGMGMSNIIIKNPDIRERFTKSRDATSGMPFTTLGYKACEICYKECGKWLDGCIKVIDKNQRIVKDFFEVNHPEIKAPLIEGTYLQWIDFRALKMDHKAMEEFMIHKAQIFFDEGYIFGDGGIGFERINLAAPSSVIQESLERLNKALKDLKNRHLK | soluble
11 | MSLDANVRTVKWNGIPLHEASSAIVKEETNGDFYLTVRYPITDSGIYQLIKEDMLIKSPVPVLGAQLFRIKKPIENDDSMDITAYHVSDDIMKRSITPVSVVGQGCAMALSQMVQNAKTGLGDFSFTSDIMDSRTFNTTETETLYSVLMDGKHSIVGTWEGELVRDNFALSIKRSRGADRGVVITTHKNLKSYQRTKNSQGVVTRIHARSTFKPDGAEDEVTLRVSVDSPLINSYPYINEKEYENNNAETVEDLRKWAEAKFTNEGIDKVSDAIEIEAYELDGQVVNLGDTVNLKSRKHSADLYKKAIAYEFNALTEEYISITFDDKPGVGGSGVSSGLSNVADAILVASATAQDVAVQRAVKNANAAFDAEFGKTKTKINDDIEIAKAKVESFKSELSNRMDNQLLPLATEAKNLASQAQADLTRKEIELRAELNREGHHHHHH | not soluble
12 | MALDNAKTSQKLQSLAELDGKAPSHRNLNVQTWSTAEGAKVLFVEARELPMFDLRLIFAAGSSQDGNAPGVALLTNAMLNEGVAGKDVGAIAQGFEGLGADFGNGAYKDMAVASLRSLSAVDKREPALKLFAEVVGKPTFPADSLARIKNQMLAGFEYQKQNPGKLASLELMKRLYGTHPYAHASDGDAKSIPPITLAQLKAFHAKAYAAGNVVIALVGDLSRSDAEAIAAQVSAALPKGPALAKIEQPAEPKASIGHIEFPSSQTSLMLAQLGIDRDDPDYAAVSLGNQILGGGGFGTRLMSEVREKRGLTYGVYSGFTPMQARGPFMINLQTRAEMSEGTLKLVQDVFAEYLKNGPTQKELDDAKRELAGSFPLSTASNADIVGQLGAMGFYNLPLSYLEDFMRQSQELTVEQVKAAMNKHLNVDKMVIVSAGPTVAQKPLEHHHHHH | not soluble
13 | MSLIDRFGRPLEDLRITLTHACNFECFFCHMEGEEGDNYLLSKEDILLVAKVARKFGINSVKLTGGEPTLRRDLVEIVRGLKQLGYEDVSMTTNGFLLKDLAHKLKLAGLDRINISLHAVSRDTFKKITGVDAFDRVIEGIKSAIDVGLVPVKLNFVVNRRNREEAFKFIELSQNLGVNEIHLIELHPVGLGKLAFKEHDDLREIEEYIEKISIKKLIRKKHFRPRYVLPSGLIVEVVKPYANPIFCAGCNRIRLSVDGKLKTCLYREDNVIDVLDILKGEYSEDVKEELLGRAFMIAIAIREPNFKYKIEGHHHHHH | soluble
14 | MADETELKRLYWHSRRGMLELDVLLVPFVQEVYPGLDAEDQARFRKLLECEDQDMFGWFMQRGEPEDADLRRMVRMILDRVQPD | not soluble
15 | MGSDKIHHHHHHMSKLSNLITQYCPEGVEYKTLGECGKFYGGLTGKSKKDFEDGNSKFITYKNVYSNPALCLDVEDKVRIEPGERQRTLEYGDIVFTGSSETPDECGISSVVAEIPEENLYLNSFCFIFRFDDPSILLPDFAKHLFRSSELRYQIGKTASGVTRYNVSKKLMGKVSFPVPPLEVQREIVRVLDSFTLLTAELTAELTARKQQYEFYRDYLLNGNSDYDICNLGDVCDVVAGGTPSRKVSDYWEDGCIPWLGSTVCKNKKNVDEPTEFITELGLEKSSAKMMKKDTTLIALVGATIGKVAFTTFDVAINQNIAGVYPKDTSKINPSYIYYACTTLYPHFLNLTQGSKLAMANLTFVRGLKISVPPIDVQNHLVNVLDNFESITSDLSIGLPAEIEARKKQYEYYRDALLTYASTGKIIARQTEHN | not soluble
16 | MFAMTSSAQSPLQQLGGTVVLAGAGKMGGALLTGWLAQGLDGGDVVVIEPHPTEEIAALSARGVRLNASAGDVGAVSTLVVAVKPQMFAEAAAALRGYVGPSTLVVSIMAGKPIAALSEQLGGHVVRAMPNTPAAIGRGITVAVAAGNVTAAQRGIADALLRATGGVEWVDDEALIDAVTAVSGSGPAYVFLLAEELARAGVEAGLPEGLAMTLARATVAGSGELLHRSDLDAATLRKNVTSPGGTTAAALEVLMANDGFRPLLTRAVAAATKRSKELAKAAALEHHHHHH | soluble
17 | MINQDFILSQVVGGSLDAVAREMSATVTRTARSPLFNEAHDFTTGVFDLSGKKSRLVAQAPGCTLHLYAVVGAVDHLLDAFRYDLHPGDILLVNDPYHGGSHSLDWTIVMPVFYNRKPILLPAVRSHMADNGGPVAGGYNPRSKDIWHDGLRIPPLKIYERGEKRRDVFDLIVANNRLSHWLEGDLNAMIGACKVAASRIQTMLDKYGAEKVITAIDNRIQYTENRVRDEISSWPDGTYVGETFADHDFQGNRDIKVRATVTVKGSDLHIDFTGSSPQVKGFINSPLSNTTSFAFVGISTCCDEDIPINEGYMNPVTVTAPIGTVVNPQLPAPCGHATACVGAEIAEAVLQAISQCAPKRVGVNAHKLPLAYSHGKYDDGKPWVNLNFYGYTGGAGAAYETDGWGLYPPVMTGVILPSIEMTEVQYPSRVLKHEYTSDFTGAGRWRGTPGLDVQIQHLKESRTSVMMAGGRNTTKGFCGAGDSPSNKVIVGYGTDEAREIDETAFEVKMPVGGIIQFYRAGGGGWGNPLEREPEKVLDD | not soluble
